Experimental data as given in patent publication US11535851B2, “Reagents for treatment of hepatitis B virus (HBV) infection and use thereof” (priority 2016, dated 2022).

Tests used:
[1] = tested on: Luciferase reporter constructs carrying effector or effector complement sequences (HBV transcripts); experiment: Dual-luciferase reporter assay (strand preference activity) in HEK293 cells; format: cell-based; conditions: FIG. 1A; for activity of constructs in luciferase reporter assay: compared directly to corresponding shRNA constructs; for antisense (effector) strand activity (strand preference activity): relative to shRNA expressing counterparts
Protocol: Efficacy of the ddRNAi constructs expressing shmiRs or shRNAs of the disclosure to knockdown HBV transcripts is determined using dual-luciferase reporter assays in HEK293 cells.
Plasmid reporter constructs based on the pGL3 Luciferase Reporter Vector are constructed for effector and effector complement sequences from each of the shmiRs and shRNAs of the disclosure. Luciferase reporter constructs e.g., firefly luciferase reporter constructs, are generated by inserting the respective effector sequence or effector complement sequence of the shmiRs or shRNAs (as appropriate) with 20 bp flanking sequences at each end into the pGL3-control vector (Promega, Madison, Wis.). The inserts are subcloned using FseI and XbaI restriction enzyme sites following the luciferase reporter gene.
The dual-luciferase reporter assays are performed in HEK293 cells (ATCC). The HEK293 cells are cultured in DMEM medium containing 10% fetal bovine serum, 2 mM glutamine, penicillin (100 U/mL), and streptomycin (100 μg/mL) at 37° C. humid incubator with 5% CO2. The HEK293 cell are seeded at a density of 2×10^4 cells per well into 96-well culture plate one day prior to transfection.
ddRNAi expression constructs described in Example 1 (i.e., ddRNAi constructs designated HBV-shmiR1 to HBV-shmiR16, HBV-shmiRx3-v1 and HBV-shmiRx3-v2) are synthesized and inserted into an appropriate plasmid vector e.g., a pSsh vector, optionally with a proximal sequence element 7 (PSE7) for constructs expressing shRNAs.
Expression vectors comprising the ddRNAi expression constructs are co-transfected into HEK293 cells with a Luciferase reporter construct e.g., a firefly luciferase reporter construct, expressing an effector sequence or effector complement sequence of the corresponding shmiR or shRNA (as appropriate) at a ratio of 10:1 (ddRNAi expression construct: Luciferase reporter construct) using 0.3 uL of Lipofectamine 2000 reagent (Life Technologies, Carlsbad, Calif.) according to manufacturer's instructions. Cells are also transfected with 1 ng of a Renilla reporter construct (serving as a transfection control). 48 hour post-transfection, cell lysates are collected and analyzed using Dual Luciferase Reporter Assay System (Promega, Madison, Wis.). The firefly/Renilla activity ratios are determined for each transfection. Percentage inhibition of reporter expression is calculated relative to a negative control e.g., a construct expressing a random non-targeting sequence. The experiment is performed in replicate.
In addition, the three ddRNAi shmiR constructs (i.e., the ddRNAi shmiR constructs expressing shmiR6, shmiR15 and shmiR12 respectively) were compared for strand preference activity relative to their shRNA expressing counterparts.
The influence of addition of an ‘A’ nucleotide at the 3′ end or a ‘G’ nucleotide at the 5′ end of the sense sequence on thermodynamics of the shmiR variant was also assessed. The idea is to allow for the antisense (or effector) strand to be preferentially loaded into the RISC complex for functional RNAi activity.

HepG2.2.15 cells = experiment: RNAi effector molecules (copies per cell) in HepG2.2.15 cells transduced with AdV vectors; format: cell-based, human; conditions: HepG2.2.15, AdV vectors MOI 100, days 3-6; versus corresponding shRNA; FIG. 3
Protocol: Single and triple shmiR or shRNA AdV vectors were prepared by subcloning the ddRNAi expression constructs described in Example 1 (i.e., ddRNAi constructs designated HBV-shmiR1 to HBV-shmiR16, HBV-shRNA1-HBV-shRNA16, HBV-shmiRx3-v1, HBV-shmiRx3-v2 and HBV-shRNAx3-v1) into a adenovirus (AdV) construct for virus production (Vector Biolabs, Malvern Pa.).
HepG2.2.15 cells were infected with the HBV shmiR AdV vectors or HBV shRNA AdV vectors in cell suspension and cultured on multi-well plates. Each well contained a suspension of approximately 1.25×10^5 HepG2.2.15 cells and one of the single or triple HBV shmiR AdV vectors, or one of the single or triple HBV shRNA AdV vectors, at MOI-100. Following transduction, cells were cultured at 37° C. at 5% CO2 for 3-7 days and harvested for total RNA isolation using Qiagen miRNeasy mini kit (Valencia, Calif.) at 3, 4, 5, and 6 days post-transfection.
Total RNAs were quantified using the NanoDrop 1000 Spectrophotometer (Thermo Scientific) and then diluted to a working concentration of 10 ng/μl.
RNAi effector molecules expressed as copies per cell were determined for shmiR-12 and shmiR-15 (FIGS. 3A and 3B, respectively) when expressed in HepG2.2.15 cells from single or triple HBV shmiR AdV vector(s) using Qiagen's miScript PCR system (designed to quantitate RNA effector molecules processed from shmiR or shRNA). […]

[2] = tested on: HBV transcripts at regions corresponding to HBsAg, HBcAg and HbxAg; experiment: Inhibition of HBV transcripts in HepG2.2.15 cells transduced with AdV vectors (RT-qPCR, relative to GAPDH mRNA); format: cell-based, HBV (serotype ayw, genotype D); conditions: HepG2.2.15, MOI of 100, 3, 4, 5 and 6 days after infection; versus corresponding shRNA constructs; FIG. 4
Protocol: Levels of inhibition of HBV transcripts at regions corresponding to HBV antigens HBsAg, HBcAg and HbxAg, relative to levels of GAPDH mRNA, are determined by normalizing the respective HBV mRNA transcript levels to GAPDH mRNA for each sample. Briefly, 100 ng of total RNA is used to synthesize cDNA using High Capacity cDNA Reverse Transcription Kit (Life Technologies, Carlsbad, Calif.) according to manufacturer instructions. Quantitative PCR amplifications of regions within HBV antigens HBsAg, HBcAg, HbxAg, and GAPDH is then performed using Power SYBR Green PCR Master Mix (Life Technologies) and the primer sets listed in Table 1. Standard real-time PCR conditions are used: initial denaturation at 95° C. for 10 min followed by 40 cycles of 95° C. for 15 sec and 60° C. for 1 min. […]
Levels of inhibition of HBV transcripts at regions corresponding to HBV antigens HBsAg, HBcAg and HbxAg, relative to levels of GAPDH mRNA, were determined according to the method described in Example 5.
Levels of inhibition of HBV transcripts at regions corresponding to HBV antigens HBsAg, HBcAg and HbxAg, relative to levels of GAPDH mRNA, for each shmiR of the disclosure (expressed individually, or as part of a triple construct), was determined at an MOI of 100 at 3, 4, 5 and 6 days after infection with HBV shmir or shRNA AdV vectors.

B1: shmiR-12: shmiR targeting HBV; RNA SEQ ID NO: 54, encoded by DNA SEQ ID NO: 70 (nucleic acid)
chain: GGUAUAUUGCUGUUGACAGUGAGCGAGUCCCGUCGGCGCUGAAUCCACUGUGAAGCAGAUGGGUGGAUUCAGCGCCGACGGGACGCGCCUACUGCCUCGGACUUCAA
modifications: expressed or natural sequence
With B1 the “activity of constructs in luciferase reporter assay” value [1] was “more effective than the corresponding shRNA constructs”, the “antisense (effector) strand activity (strand preference activity)” value [1] was “higher antisense (effector) strand activity relative to the corresponding shRNAs” and the “levels of effector RNAi molecule (copies per cell)” value (HepG2.2.15 cells) was “higher than the corresponding shRNAs”. For the same molecule, the “silencing of HBV RNAs (HBsAg, HBcAg, HbxAg regions)” value [2] was “greater silencing of HBV RNAs compared to the corresponding shRNA expressing constructs”.

B2: shmiR-15: shmiR targeting HBV; RNA SEQ ID NO: 57, encoded by DNA SEQ ID NO: 73 (nucleic acid)
chain: GGUAUAUUGCUGUUGACAGUGAGCGAAGUGGUUCGUAGGGCUUUCCACUGUGAAGCAGAUGGGUGGAAAGCCCUACGAACCACUGCGCCUACUGCCUCGGACUUCAA
modifications: expressed or natural sequence
B2 was tested, and the “activity of constructs in luciferase reporter assay” value [1] was “more effective than the corresponding shRNA constructs”, the “antisense (effector) strand activity (strand preference activity)” value [1] was “higher antisense (effector) strand activity relative to the corresponding shRNAs” and the “levels of effector RNAi molecule (copies per cell)” value (HepG2.2.15 cells) was “higher than the corresponding shRNAs”. For the same molecule, the “silencing of HBV RNAs (HBsAg, HBcAg, HbxAg regions)” value [2] was “greater silencing of HBV RNAs compared to the corresponding shRNA expressing constructs”.
